In US20240150460A1 (SHENGHE CHINA BIOPHARMACEUTICAL, published 2024):
Blank lines part the entries; values can stand above or below the molecule they belong to.

Tests used:
[1] = target: T1, NKp30 on NK cells (UniProt O14931 19-201, limits assumed); assay: flow cytometry (y axis MFI, x axis in nM); the legend of FIGS. 3a-3h names a stable expression cell line; fit value of a flat curve, far outside the range tested
T1 sequence (looked up): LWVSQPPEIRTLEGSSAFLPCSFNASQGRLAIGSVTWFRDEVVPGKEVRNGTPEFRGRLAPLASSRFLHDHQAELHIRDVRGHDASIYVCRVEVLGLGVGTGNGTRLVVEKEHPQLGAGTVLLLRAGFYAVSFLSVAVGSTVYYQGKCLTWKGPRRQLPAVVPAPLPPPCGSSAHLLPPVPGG

[2] = target: T1, NKp30 on NK cells; assay: cell-based or functional assay
[3] = target: T2, human NKp30-his protein (KACTUS; Cat: NKP-HM430) (human, UniProt O14931 19-135, limits assumed); assay: ELISA, Human-NKp30-His coated at 0.2 µg/mL, antibody from 10 µg/mL in 3-fold steps, goat anti-human Fc, OD450 (Example 11)
T2 construct: Bought protein (KACTUS NKP-HM430); not shown: His tag
T2 sequence (looked up): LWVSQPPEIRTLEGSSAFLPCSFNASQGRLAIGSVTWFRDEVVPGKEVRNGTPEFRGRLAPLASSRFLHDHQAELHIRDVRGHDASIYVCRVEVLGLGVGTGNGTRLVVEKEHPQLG
Protocol: (§1) Human-NKp30-His (purchased from KACTUS, item No. NKP-HM430) was diluted to 0.2 μg/mL with the coating solution (1×PBS, pH 7.4), and was coated into 96-well enzyme-labelled plates at 100 μL/well and allowed to stand overnight at 4° C. The coating solution was poured off, the plate was washed with 1×PBST at 300 μL/well, washed with a plate washer for 4 times, and patted dry on a plate paper. The plate was blocked with 3% skimmed milk powder at 300 μL/well, and incubated at 37° C. for 1 h. The blocking solution was poured off, washed with a plate washer for 4 times, and patted dry on a plate paper. The reference product and the test product were diluted with 3% skimmed milk powder to 10 μg/mL, and the initial concentration was diluted by 3 times. A total of 11 gradients were diluted, and another blank well was set, and only diluent was added. It was incubated at 37° C. and 100 μL/well for 1 h. Liquid in the wells was discarded, and washed with a plate washer for 4 times, and patted dry on a plate paper. The goat anti-human Fc was diluted with 3% skimmed milk powder at 1: 20,000 and 100 μL/well, and incubated at 37° C. for 1 h. The plate was washed with a plate washer for 6 times, and patted dry on a plate paper. TMB color developing solution was added at 100 μL/well, and wrapped with an aluminum foil, and the color was developed at 37° C. for 8 minutes, protected from light. The termination solution 1 M HCl was added at 100 μL/well to terminate the color development reaction. It was read at 450 nm on an enzyme-labeled instrument.

[4] = target: T2, human NKp30-his protein (KACTUS; Cat: …); assay: BLI (Octet Red96e), antibody captured on AHC sensor, 100 nM human NKp30-his in solution, 1:1 fit
Protocol: (§2) After equilibration of the AHC sensor with 0.02% PBST (0.02% Tween 20, pH 7.4, 1*PBS) as buffer for 60 s, the NKp30 antibody in the sample plate was immobilized for 300 s and second equilibration was performed for 180 s. […] human NKp30-his protein (KACTUS; Cat: NKP-HM430) was bound with NKp30 antibody for 300 s and then dissociated for 600 s. After dissociation, 10 mM glycine (pH 2.0) was used as regeneration buffer to regenerate for 30 s.
Subtract the result plot for reference channel H1 from the test result plot. The experimental data fit the 1:1 binding model. The molecular weight of 35 kDa was used to calculate the molar concentration of human NKp30 protein.

[5] = target: T2, human NKp30-his protein (KACTUS; Cat: …); assay: ELISA, Human-NKp30-His coated at 0.2 µg/mL, antibody from 10 µg/mL in 3-fold steps, goat anti-human Fc, OD450 (Example 11); remark: listed apart in the source
Protocol: as §1, with “TMB color developing solution was added at 100 μL/well, and wrapped with an aluminum foil, and the color was developed at 37° C. for 8 minutes, protected from light. The termination solution 1 M HCl was added at 100 μL/well to terminate the color development reaction.” left out

[6] = target: T2, human NKp30-his protein (KACTUS; Cat: …); assay: as above; remark: listed apart in the source
Protocol: as §1

[7] = target: T1, NKp30 on NK cells; assay: flow cytometry (y axis MFI, x axis in nM); the legend of FIGS. 3a-3h names a stable expression cell line; Example 11 describes no cell assay
[8] = target: T2, human NKp30-his protein (KACTUS; Cat: …); assay: BLI (Octet Red96e), method of Example 6: antibody on AHC sensor, human NKp30-his in solution; second run, Table 4 (Example 12 series with the CDR-modified and humanized variants)
Protocol: as §2
(§3) The affinity of the CDR-modified and humanized antibodies was tested according to the method of Example 6, and the results are shown in Table 4.

[9] = target: T2, human NKp30-his protein (KACTUS; Cat: …); assay: BLI (Octet Red96e), method of Example 6: antibody on AHC sensor, human NKp30-his in solution
Protocol: as §2, §3

[10] = target: T2, human NKp30-his protein (KACTUS; Cat: …); assay: ELISA, Human-NKp30-His coated at 0.2 µg/mL, antibody from 10 µg/mL in 3-fold steps, goat anti-human Fc, OD450 (Example 11); the fit value lies above the highest concentration tested
Protocol: as §1, with “TMB color developing solution was added at 100 μL/well, and wrapped with an aluminum foil, and the color was developed at 37° C. for 8 minutes, protected from light. The termination solution 1 M HCl was added at 100 μL/well to terminate the color development reaction.” left out

[11] = target: T2, human NKp30-his protein (KACTUS; Cat: …); assay: ELISA, Human-NKp30-His coated at 0.2 µg/mL, antibody from 10 µg/mL in 3-fold steps, goat anti-human Fc, OD450 (Example 11); the curve stays low: fitted plateau about OD450 0.25, highest point about 0.4 at 3.3 µg/mL, about 0.2 at 10 µg/mL
Protocol: as §1, with “TMB color developing solution was added at 100 μL/well, and wrapped with an aluminum foil, and the color was developed at 37° C. for 8 minutes, protected from light. The termination solution 1 M HCl was added at 100 μL/well to terminate the color development reaction.” left out

B1: antibody 18-hu3 (antibody, V domains shown)
VH: EVQLVESGGGLVQPGGSLRLSCAASGIRFSIANMGWYRQAPGKLHEMVAGITSDGFTNYADSVKGRFTISRDNSKNTLYLQMNSLRAEDTAVYYCASFPTRHYWGQGTLVTVSS
notes: also called humanized antibody 18-hu3
IFN-γ secretion by NK cells stimulated with plate-coated antibody, EC50 [2]: 8.83 nM | EC50 [3]: 8.48 ng/mL

B2: antibody 18 (antibody, V domains shown)
VH: EVQLVESGGGLVQPGGSLRLSCAAAGIRFSIANMGWYRQAPGKLHEMVAGITSDGFTNYADSVKGRFTISRDNAKNTVYLQMNNLKPEDTAVYYCDSFPTRHYWGQGTQVTVSS
notes: expressed in CHO cells; also called chimeric antibody 18
Kd [4]: 0.302 nM | EC50 [3]: 2.51 ng/mL | EC50 [5]: 3.62 ng/mL

B3: antibody 18-hu4 (antibody, V domains shown)
VH: EVQLVESGGGLVQPGGSLRLSCAASGIRFSIANMGWYRQAPGKLHEMVAGITSDGFTNYADSVKGRFTISRDNSKNTLYLQMNSLRAEDTAVYYCDSFPTRHYWGQGTLVTVSS
EC50 [5]: 17 ng/mL

B4: antibody 23 (antibody, V domains shown)
VH: EVQLVESGGGLVQPGGSLRLSCAASGSIFSPNGIGWYRQAPGKLRELVAGITGNGLTDYADSVKGRFTISRDSAKNTVYLQMNSLKTEDTAVYYCNLLLNHAEWGQGTQVTVSS
notes: expressed in CHO cells; also called chimeric antibody 23
Kd [4]: 2.34 nM | EC50 [3]: 7.46 ng/mL | EC50 (read off the curve) [3]: ~7 ng/mL | EC50 [6]: 2.38 ng/mL | EC50 [7]: 0.658 nM | Kd [8]: 0.844 nM

B6: antibody 23-hu48 (antibody, V domains shown)
VH: EVQLVESGGGLVQPGGSLRLSCAASGSIFSPNAIGWYRQAPGKGRELVSGITGNGLTDYAESVKGRFTISRDNSKNTVYLQMNSLRAEDTAVYYCALLLNHAEWGQGTLVTVSS
Kd [9]: 5.1 nM | EC50 [10]: 76200 ng/mL

B8: antibody 23-hu45 (antibody, V domains shown)
VH: EVQLVESGGGLVQPGGSLRLSCAASGSIFSPNGIGWYRQAPGKLRELVAGITGNGLTDYAESVKGRFTISRDNSKNTVYLQMNSLRAEDTAVYYCNLLLNHAEWGQGTLVTVSS
Kd [9]: 0.991 nM | EC50 (read off the curve) [3]: ~3 ng/mL | EC50 [6]: 2.83 ng/mL

The next lines start with the values.

EC50 [1]: 241000 nM
Molecule: isotype control antibody

EC50 [6]: 2.27 ng/mL
B5: antibody 23-hu49 (antibody, V domains shown)
VH: EVQLVESGGGLVQPGGSLRLSCAASGSIFSPNAIGWYRQAPGKLRELVAGITGNGLTDYAESVKGRFTISRDNSKNTVYLQMNSLRAEDTAVYYCNLLLNHAEWGQGTLVTVSS

Kd [9]: 5.93 nM | EC50 [11]: 230 ng/mL
B7: antibody 23-hu52 (antibody, V domains shown)
VH: EVQLVESGGGLVQPGGSLRLSCAASGSIFSPQGIGWYRQAPGKGRELVSGITGNGLTDYAESVKGRFTISRDNSKNTVYLQMNSLRAEDTAVYYCALLLNHAEWGQGTLVTVSS

Kd [9]: 1.27 nM | EC50 [7]: 0.493 nM
B9: antibody 23-p (antibody, V domains shown)
VH: EVQLVESGGGLVQPGGSLRLSCAASGSIFSPNGIGWYRQAPGKLRELVAGITGNGLTDYAESVKGRFTISRDSAKNTVYLQMNSLKTEDTAVYYCNLLLNHAEWGQGTQVTVSS

Kd [9]: 1.3 nM
B10: antibody 23-hu44 (antibody, V domains shown)
VH: EVQLVESGGGLVQPGGSLRLSCAASGSIFSPNGIGWYRQAPGKGRELVSGITGNGLTDYAESVKGRFTISRDNSKNTVYLQMNSLRAEDTAVYYCALLLNHAEWGQGTLVTVSS
